# Measurements as given in patent US20220023399A1, “BLOOD COMPONENT POTENTIATION OF LYTIC PROTEIN ANTI-BACTERIAL ACTIVITY AND METHODS AND USES THEREOF” (priority 2017, published 2022).
# Values joined by “and” are separate entries in the source; they are usually repeats but may differ in a detail not shown here. Equal values may be shown once.
# B1: PlySs2 (CF-301): antistaphylococcal lysin from a Streptococcus suis prophage; N-terminal CHAP domain, C-terminal SH3-type binding domain; SEQ ID NO:3 (protein, listed as Streptococcus suis)
# chain: MTTVNEALNNVRAQVGSGVSVGNGECYALASWYERMISPDATVGLGAGVGWVSGAIGDTISAKNIGSSYNWQANGWTVSTSGPFKAGQIVTLGATPGNPYGHVVIVEAVDGDRLTILEQNYGGKRYPVRNYYSAASYRQQVVHYITPPGTVAQSAPNLAGSRSYRETGTMTVTVDALNVRRAPNTSGEIVAVYKRGESFDYDTVIIDVNGYVWVSYIGGSGKRNYVATGATKDGKRFGNAWGTFK
# Columns and labels:
# S. aureus strain MW2 [1] = experiment: Lytic assay (loss of optical density) and specific activity
# S. aureus strain MW2 [2] = experiment: MIC by broth microdilution in human blood matrices and animal sera; assay type: cell-based; conditions: for PlySs2/CF-301 MIC: different lots
# Experimental: FIG. 5 provides PlySs2 (CF-301) MIC distribution for S. aureus MW2 in different human blood matrices. […] Each sample is described in Supplementary Table 1. The MICs are plotted on the x axis, and the numbers of patient samples with particular MICs are plotted on the y axis.
# To understand whether variation in the sources of human blood-derived matrices may impact activity, PlySs2 (CF-301) MICs were determined using an array of 62 different pooled and individual human donor samples of whole blood, serum and plasma from different commercial sources with variations in age, sex, blood type, and type of anticoagulant used. […] Histograms showing MIC frequencies for each of the different matrices indicate that activity in whole blood and serum is equivalent, while activity in plasma differs by ˜1-log 2 dilution (FIG. 5). Overall, the enhancer effect was not impacted by variations in the age, sex, and blood type of individual or pooled donors or by the use of sodium citrate or sodium heparin as anticoagulants (TABLE 3). The effect was also observed in complement-inactivate media, complement preserved media, and was equivalent in at least 3 different matched sets of human blood, serum and plasma fractions, while delipidated serum was not equivalent.
# The impact of sample variation on PlySs2 (CF-301) activity in the serum of different animal species was also examined.
# S. aureus JMI 227 (MRSA) = experiment: Checkerboard assay, additional MRSA strains; assay type: cell-based; conditions: paired agent not given
# [3] = test system: methicillin-resistant S. aureus (MRSA) strain MW2; experiment: Time-kill assay in blood matrices and MHB; assay type: cell-based
# [4] = test system: S. aureus CAIRD 456 (MRSA); experiment: Checkerboard assay, additional MRSA strains; assay type: cell-based; conditions: paired agent not given
# [5] = test system: 171 clinical S. aureus isolates (MSSA, MRSA, vancomycin-, linezolid-, daptomycin-resistant); experiment: MIC by broth microdilution in CAMHB vs human serum, 171 clinical isolates
# [6] = test system: S. aureus (strain not given); experiment: MIC analysis of various lysins, chimeric lysins and antibiotics in MHB and human serum; assay type: cell-based; conditions: Table 14 (Example 2)
# Experimental: To further evaluate the binding domain relevance to the serum component effect, various chimerics were constructed by replacing or swapping out one binding domain for another. Chimeric lysins having the Sal1 CHAP catalytic domain with ClyS binding domain, PlySs2 (CF-301) binding domain, or lysostaphin binding domain were assayed for MIC using MHB versus human serum. the results are depicted below in TABLE 14.
# MRSA strain MW2 [7] = experiment: Rat infective endocarditis model; assay type: in vivo, Sprague-Dawley rats
# [8] = test system: S. aureus ATCC 43300 (MRSA); experiment: Checkerboard assay, additional MRSA strains; assay type: cell-based; conditions: paired agent not given
# S. aureus strain MW2 [9] = conditions: CAMHB (Schuch 2014); cited from earlier work
# [10] = test system: S. aureus JMI 4789 (MRSA); experiment: Checkerboard assay, additional MRSA strains; assay type: cell-based; conditions: paired agent not given
# [11] = test system: S. aureus (strain not given); experiment: MIC assay in supplemented media (recapitulation of blood effect; delipidated serum with fatty acids); assay type: cell-based
# S. aureus strain MW2 [12] = experiment: Synergy time-kill assay; assay type: cell-based; conditions: human serum
# [13] = test system: S. aureus (strain not given); experiment: MIC analysis of various lysins, chimeric lysins and antibiotics in MHB and human serum; assay type: cell-based; conditions: Table 2
# MRSA strain MW2 [14] = experiment: Rabbit infective endocarditis model; assay type: in vivo, New Zealand White Rabbits; conditions: rabbit; total dose ≥0.09 mg/kg PlySs2 (CF-301) in addition to DAP below the HTD equivalent
# [15] = clinical grade, recombinant from E. coli; cited from earlier work
# S. aureus HPV 107 (MRSA) = experiment: Checkerboard assay, additional MRSA strains; assay type: cell-based; conditions: paired agent not given
# [16] = human whole blood (n=13), serum (n=33) and plasma (n=15) samples
# [17] = medium head missing (human serum)
molecule,measurement,setting,value
B1,Fold increase in specific activity,"S. aureus strain MW2 [1]; supplement HuLYZ, 10 μg/mL",9.8
same,Fold increase in specific activity,"S. aureus strain MW2 [1]; supplement rHSA, 4%",17.8
same,Fold increase in specific activity,"S. aureus strain MW2 [1]; supplements rHSA, HuLYZ",25
same,MIC,S. aureus strain MW2 [2]; AST medium,^$$MIC AST medium: 0.5 μg/mL
same,PlySs2/CF-301 MIC,S. aureus strain MW2 [2]; dog serum (undiluted),1 µg/mL and 0.5 µg/mL
same,MIC,"S. aureus strain MW2 [2]; human serum, delipidized, pooled lots",64
same,MIC90,S. aureus strain MW2 [2]; [16],1 µg/mL
same,MIC Range,S. aureus strain MW2 [2]; [16],0.5 to 2 µg/mL
same,PlySs2/CF-301 MIC,S. aureus strain MW2 [2]; mouse serum (undiluted),32 µg/mL and 64 µg/mL
same,PlySs2/CF-301 MIC,S. aureus strain MW2 [2]; rabbit serum (undiluted),1 µg/mL
same,PlySs2/CF-301 MIC,S. aureus strain MW2 [2]; rat serum (undiluted),8 µg/mL
same,ΣFICavg,S. aureus JMI 227 (MRSA); CAMHB,0.64
same,ΣFICmin,S. aureus JMI 227 (MRSA); CAMHB,0.5
same,ΣFICavg,S. aureus JMI 227 (MRSA); [17],0.29
same,ΣFICmin,S. aureus JMI 227 (MRSA); [17],0.25
same,minimum sterilizing concentration,[3]; MHB,320 µg/mL
same,minimum sterilizing concentration,"[3]; all human blood matrices (whole blood, serum, plasma), sterilizing by 24 hours",3.2 µg/mL
same,sterilizing concentration,[3]; calf serum,32 µg/mL
same,sterilizing concentration,[3]; dog serum,3.2 µg/mL
same,sterilizing concentration,[3]; mouse serum,> 320 µg/mL
same,sterilizing concentration,[3]; rabbit serum,3.2 µg/mL
same,sterilizing concentration,[3]; rat serum,32 µg/mL
same,"difference in sterilizing activity/potency, blood compared to MHB","[3]; strain MW2, human blood matrices vs MHB",100 fold
same,ΣFICavg,[4]; CAMHB,0.75
same,ΣFICmin,[4]; CAMHB,0.5
same,ΣFICavg,[4]; [17],0.44
same,ΣFICmin,[4]; [17],0.38
same,MIC Range,"[5]; MRSA (N 75), CAMHB",2-128
same,MIC Range,"[5]; MRSA (N 75), human serum",0.25-2
same,MIC Range,"[5]; MSSA (N 74), CAMHB",8-32
same,MIC Range,"[5]; MSSA (N 74), human serum",0.25-1
same,MIC Range,"[5]; Other (N 22: 12 vancomycin-, 5 linezolid-, 5 daptomycin-resistant strains), CAMHB",0.5-32^
same,MIC Range,"[5]; Other (N 22: 12 vancomycin-, 5 linezolid-, 5 daptomycin-resistant strains), human serum",0.25-2
same,"Minimal inhibitory concentration, MHB",[6]; MHB,32 µg/mL
same,Fold decrease in MIC,[6]; human serum vs MHB,32
same,"Minimal inhibitory concentration, Human serum",[6]; human serum,1 µg/mL
same,fold lower doses giving comparable efficacy in the rabbit vs the rat model,MRSA strain MW2 [7]; S. aureus infectious endocarditis models,111 fold
same,estimate AUC/MIC ratio required to achieve maximal efficacy,"MRSA strain MW2 [7]; rat IE model, 10 mg/kg in addition to DAP, 3 log10 drop relative to DAP alone",≥ 0.87
same,drop in CFU/g in heart valve vegetation,"MRSA strain MW2 [7]; rat, total dose 10 mg/kg PlySs2 (CF-301) in addition to HTD equivalent of DAP, relative to DAP alone",~3 log 10
same,fold higher AUC exposure required for similar bactericidal effect in rats compared to rabbits,MRSA strain MW2 [7]; rats 10 mg/kg vs rabbits 0.18 mg/kg,> 20 fold
same,fold higher dose required for similar bactericidal effect in rats compared to rabbits,"MRSA strain MW2 [7]; rats 10 mg/kg vs rabbits 0.18 mg/kg, in addition to DAP",~50 fold and > 50 fold
same,ΣFICavg,[8]; CAMHB,0.87
same,ΣFICmin,[8]; CAMHB,0.5
same,ΣFICavg,[8]; [17],0.29
same,ΣFICmin,[8]; [17],0.25
same,minimum concentration required for synergy with daptomycin,S. aureus strain MW2 [9],4 µg/mL
same,ΣFICavg,[10]; CAMHB,0.64
same,ΣFICmin,[10]; CAMHB,0.5
same,ΣFICavg,[10]; [17],0.29
same,ΣFICmin,[10]; [17],0.25
same,Fold decrease in MIC,"[11]; 50% MHB/50% human serum (heat inactivated) + HSA, 40 mg/mL",4
same,Fold decrease in MIC,"[11]; 50% MHB/50% human serum (heat inactivated) + HuLYZ, 10 μg/mL",2
same,Fold decrease in MIC,"[11]; 50% MHB/50% human serum (heat inactivated) + HuLYZ, 10 μg/mL + HSA 40 mg/mL",16
same,Fold decrease in MIC,"[11]; 50% MHB/50% human serum (heat inactivated) + MouseSA, 40 mg/mL",1
same,Fold decrease in MIC,"[11]; 50% MHB/50% human serum (heat inactivated) + RabSA, 40 mg/mL",4
same,Fold decrease in MIC,"[11]; 50% MHB/50% human serum (heat inactivated) + RatSA, 40 mg/mL",2
same,Fold decrease in MIC,"[11]; MHB supplemented with HSA, 40 mg/mL",8
same,Fold decrease in MIC,"[11]; MHB supplemented with HuLYZ, 10 μg/mL",2
same,Fold decrease in MIC,"[11]; MHB supplemented with HuLYZ, 10 μg/mL + HSA 40 mg/mL",16
same,Fold decrease in MIC,"[11]; MHB supplemented with RabSA, 40 mg/mL",8
same,Fold decrease in CF-301 MIC compared to media alone,[11]; delipidated human serum + Oleate (0.625 mg/mL),8
same,Fold decrease in CF-301 MIC compared to media alone,[11]; delipidated human serum + Palmitate (0.625 mg/mL),16
same,Fold decrease in CF-301 MIC compared to media alone,[11]; delipidated human serum + Palmitate + Oleate,16
same,concentration of each agent in PlySs2 (CF-301) + lysostaphin combination sterilizing at 24 hours,S. aureus strain MW2 [12],0.005 µg/mL
same,minimum concentration demonstrating synergy with daptomycin,S. aureus strain MW2 [12],0.025 µg/mL
same,fold decrease in minimum sterilizing concentration vs single agent,S. aureus strain MW2 [12]; in combination with DAP,64 fold
same,"Minimal inhibitory concentration, MHB",[13]; MHB,32 µg/mL
same,Fold decrease in MIC,[13]; human serum vs MHB,32
same,"Minimal inhibitory concentration, Human serum",[13]; human serum,1 µg/mL
same,decrease in bacterial densities as compared to DAP treatment alone,MRSA strain MW2 [14],3 log 10
same,pH range over which active,[15],6-9.7 pH
same,temperature range over which active,[15],16-55 °C
same,ΣFICavg,S. aureus HPV 107 (MRSA); CAMHB,0.64
same,ΣFICmin,S. aureus HPV 107 (MRSA); CAMHB,0.5
same,ΣFICavg,S. aureus HPV 107 (MRSA); [17],0.44
same,ΣFICmin,S. aureus HPV 107 (MRSA); [17],0.38
